Values quoted from earlier work, collected in publication PMC11316025.

Biological target: KRAS (Homo sapiens) (UniProt P01116)

Sequence of RASSF5 (Q8WWW0 whole entry): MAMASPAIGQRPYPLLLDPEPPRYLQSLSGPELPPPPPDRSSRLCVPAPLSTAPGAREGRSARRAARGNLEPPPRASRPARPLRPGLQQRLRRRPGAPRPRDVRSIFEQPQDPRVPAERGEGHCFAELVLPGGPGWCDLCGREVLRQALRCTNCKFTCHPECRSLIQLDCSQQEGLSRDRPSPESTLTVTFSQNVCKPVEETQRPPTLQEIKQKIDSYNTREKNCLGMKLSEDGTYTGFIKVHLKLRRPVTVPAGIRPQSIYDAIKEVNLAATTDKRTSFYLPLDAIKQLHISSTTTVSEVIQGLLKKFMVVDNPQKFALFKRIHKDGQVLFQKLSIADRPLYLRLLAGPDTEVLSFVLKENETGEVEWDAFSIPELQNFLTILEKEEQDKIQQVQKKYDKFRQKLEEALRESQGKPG

- Kd: 1700 nM
Substance: RASSF5 (from UniProt Q8WWW0)
